Results as given in patent US20180273587A1 (AILERON THERAPEUTICS, published 2018).
Positions of bridges follow the written chain, without caps; N, C: chain ends. Non-standard residues stand in square brackets, D forms with d. Phe(4-F) = N[C@@H](Cc1ccc(F)cc1)C(=O)O; tBuAla = CC(C)(C)C[C@H](N)C(=O)O; R8 = C=CCCCCCC[C@@](C)(N)C(=O)O; αMeL = CC(C)C[C@](C)(N)C(=O)O; Chg = N[C@H](C(=O)O)C1CCCCC1; hLeu = CC(C)CC[C@H](N)C(=O)O; S5 = C=CCCC[C@](C)(N)C(=O)O

Columns and labels:
Assay in all cases: Ki table, method not stated
BCL-XL = BCL-XL (UniProt Q07817 1-209)
Chain of BCL-XL (Q07817 1-209): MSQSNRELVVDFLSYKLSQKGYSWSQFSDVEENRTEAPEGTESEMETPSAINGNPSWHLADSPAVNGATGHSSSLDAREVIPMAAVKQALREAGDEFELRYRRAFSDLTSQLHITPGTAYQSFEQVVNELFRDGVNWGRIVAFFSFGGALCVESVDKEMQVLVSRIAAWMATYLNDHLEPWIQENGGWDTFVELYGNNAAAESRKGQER

BCL-2 = BCL-2 (UniProt P10415 1-217, limits assumed)
Chain of BCL-2 (P10415 1-217 limits assumed): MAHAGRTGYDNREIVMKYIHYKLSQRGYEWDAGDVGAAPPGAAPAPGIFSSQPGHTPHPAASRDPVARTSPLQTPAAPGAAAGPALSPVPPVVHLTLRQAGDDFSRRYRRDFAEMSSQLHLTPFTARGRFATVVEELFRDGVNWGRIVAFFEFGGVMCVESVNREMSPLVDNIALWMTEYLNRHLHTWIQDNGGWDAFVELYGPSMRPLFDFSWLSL

MCL-1 = target: T1, MCL-1 (UniProt Q07820 172-327, limits assumed)
T1 construct: also called Myeloid cell leukemia 1
T1 sequence (Q07820 172-327 limits assumed): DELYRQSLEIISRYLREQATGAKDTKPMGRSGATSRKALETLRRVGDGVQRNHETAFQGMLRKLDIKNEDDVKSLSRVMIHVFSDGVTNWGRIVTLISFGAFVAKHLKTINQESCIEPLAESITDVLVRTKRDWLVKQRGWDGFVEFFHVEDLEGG

Binder	Ki (BCL-XL)	Ki (BCL-2)	Ki (MCL-1)
Ac-IW[αMeL]AQALR[R8]IGDAFN[S5]YYA-NH2 (staple 9-16; SMILES CC[C@H](C)[C@H](NC(C)=O)C(=O)N[C@@H](Cc1c[nH]c2ccccc12)C(=O)N[C@@](C)(CC(C)C)C(=O)N[C@@H](C)C(=O)N[C@@H](CCC(N)=O)C(=O)N[C@@H](C)C(=O)N[C@@H](CC(C)C)C(=O)N[C@@H](CCCNC(=N)N)C(=O)N[C@]1(C)CCCCCCC=CCCC[C@@](C)(C(=O)N[C@@H](Cc2ccc(O)cc2)C(=O)N[C@@H](Cc2ccc(O)cc2)C(=O)N[C@@H](C)C(N)=O)NC(=O)[C@H](CC(N)=O)NC(=O)[C@H](Cc2ccccc2)NC(=O)[C@H](C)NC(=O)[C@H](CC(=O)O)NC(=O)CNC(=O)[C@H]([C@@H](C)CC)NC1=O, also called Ac-IWAmLAQALR$r8IGDAFN$YYA-NH2) [SEQ ID NO: 1706]	7.2 nM	24.8 nM	19.8 nM
Ac-IWIAQALR[R8]IGDAFN[S5]Y[Phe(4-F)]A-NH2 (staple 9-16; SMILES CC[C@H](C)[C@H](NC(C)=O)C(=O)N[C@@H](Cc1c[nH]c2ccccc12)C(=O)N[C@H](C(=O)N[C@@H](C)C(=O)N[C@@H](CCC(N)=O)C(=O)N[C@@H](C)C(=O)N[C@@H](CC(C)C)C(=O)N[C@@H](CCCNC(=N)N)C(=O)N[C@]1(C)CCCCCCC=CCCC[C@@](C)(C(=O)N[C@@H](Cc2ccc(O)cc2)C(=O)N[C@@H](Cc2ccc(F)cc2)C(=O)N[C@@H](C)C(N)=O)NC(=O)[C@H](CC(N)=O)NC(=O)[C@H](Cc2ccccc2)NC(=O)[C@H](C)NC(=O)[C@H](CC(=O)O)NC(=O)CNC(=O)[C@H]([C@@H](C)CC)NC1=O)[C@@H](C)CC) [SEQ ID NO: 1710]	9.5 nM	91.8 nM	4.8 nM
Ac-IW[tBuAla]AQALR[R8]IGDAFN[S5]YYA-NH2 (staple 9-16; SMILES CC[C@H](C)[C@H](NC(C)=O)C(=O)N[C@@H](Cc1c[nH]c2ccccc12)C(=O)N[C@@H](CC(C)(C)C)C(=O)N[C@@H](C)C(=O)N[C@@H](CCC(N)=O)C(=O)N[C@@H](C)C(=O)N[C@@H](CC(C)C)C(=O)N[C@@H](CCCNC(=N)N)C(=O)N[C@]1(C)CCCCCCC=CCCC[C@@](C)(C(=O)N[C@@H](Cc2ccc(O)cc2)C(=O)N[C@@H](Cc2ccc(O)cc2)C(=O)N[C@@H](C)C(N)=O)NC(=O)[C@H](CC(N)=O)NC(=O)[C@H](Cc2ccccc2)NC(=O)[C@H](C)NC(=O)[C@H](CC(=O)O)NC(=O)CNC(=O)[C@H]([C@@H](C)CC)NC1=O, also called Ac-IWTbaAQALR$r8IGDAFN$YYA-NH2) [SEQ ID NO: 1711]	17.2 nM	36.6 nM	10.9 nM
Ac-IW[hLeu]AQALR[R8]IGDAFN[S5]YYA-NH2 (staple 9-16; SMILES CC[C@H](C)[C@H](NC(C)=O)C(=O)N[C@@H](Cc1c[nH]c2ccccc12)C(=O)N[C@@H](CCC(C)C)C(=O)N[C@@H](C)C(=O)N[C@@H](CCC(N)=O)C(=O)N[C@@H](C)C(=O)N[C@@H](CC(C)C)C(=O)N[C@@H](CCCNC(=N)N)C(=O)N[C@]1(C)CCCCCCC=CCCC[C@@](C)(C(=O)N[C@@H](Cc2ccc(O)cc2)C(=O)N[C@@H](Cc2ccc(O)cc2)C(=O)N[C@@H](C)C(N)=O)NC(=O)[C@H](CC(N)=O)NC(=O)[C@H](Cc2ccccc2)NC(=O)[C@H](C)NC(=O)[C@H](CC(=O)O)NC(=O)CNC(=O)[C@H]([C@@H](C)CC)NC1=O, also called Ac-IWhLAQALR$r8IGDAFN$YYA-NH2) [SEQ ID NO: 1712]	17 nM	36.5 nM	3.7 nM
Ac-IW[Chg]AQALR[R8]IGDAFN[S5]YYA-NH2 (staple 9-16; SMILES CC[C@H](C)[C@H](NC(C)=O)C(=O)N[C@@H](Cc1c[nH]c2ccccc12)C(=O)N[C@H](C(=O)N[C@@H](C)C(=O)N[C@@H](CCC(N)=O)C(=O)N[C@@H](C)C(=O)N[C@@H](CC(C)C)C(=O)N[C@@H](CCCNC(=N)N)C(=O)N[C@]1(C)CCCCCCC=CCCC[C@@](C)(C(=O)N[C@@H](Cc2ccc(O)cc2)C(=O)N[C@@H](Cc2ccc(O)cc2)C(=O)N[C@@H](C)C(N)=O)NC(=O)[C@H](CC(N)=O)NC(=O)[C@H](Cc2ccccc2)NC(=O)[C@H](C)NC(=O)[C@H](CC(=O)O)NC(=O)CNC(=O)[C@H]([C@@H](C)CC)NC1=O)C1CCCCC1, also called Ac-IWChgAQALR$r8IGDAFN$YYA-NH2) [SEQ ID NO: 1713]	20.9 nM	38.9 nM	4.6 nM
Ac-EWIAAALR[R8]IGDAFN[S5]YYA-NH2 (staple 9-16; SMILES CC[C@H](C)[C@H](NC(=O)[C@H](Cc1c[nH]c2ccccc12)NC(=O)[C@H](CCC(=O)O)NC(C)=O)C(=O)N[C@@H](C)C(=O)N[C@@H](C)C(=O)N[C@@H](C)C(=O)N[C@@H](CC(C)C)C(=O)N[C@@H](CCCNC(=N)N)C(=O)N[C@]1(C)CCCCCCC=CCCC[C@@](C)(C(=O)N[C@@H](Cc2ccc(O)cc2)C(=O)N[C@@H](Cc2ccc(O)cc2)C(=O)N[C@@H](C)C(N)=O)NC(=O)[C@H](CC(N)=O)NC(=O)[C@H](Cc2ccccc2)NC(=O)[C@H](C)NC(=O)[C@H](CC(=O)O)NC(=O)CNC(=O)[C@H]([C@@H](C)CC)NC1=O) [SEQ ID NO: 1716]	72 nM	118 nM	2.2 nM
Ac-RWIAAALR[R8]IGDAFN[S5]YYA-NH2 (staple 9-16; SMILES CC[C@H](C)[C@H](NC(=O)[C@H](Cc1c[nH]c2ccccc12)NC(=O)[C@H](CCCNC(=N)N)NC(C)=O)C(=O)N[C@@H](C)C(=O)N[C@@H](C)C(=O)N[C@@H](C)C(=O)N[C@@H](CC(C)C)C(=O)N[C@@H](CCCNC(=N)N)C(=O)N[C@]1(C)CCCCCCC=CCCC[C@@](C)(C(=O)N[C@@H](Cc2ccc(O)cc2)C(=O)N[C@@H](Cc2ccc(O)cc2)C(=O)N[C@@H](C)C(N)=O)NC(=O)[C@H](CC(N)=O)NC(=O)[C@H](Cc2ccccc2)NC(=O)[C@H](C)NC(=O)[C@H](CC(=O)O)NC(=O)CNC(=O)[C@H]([C@@H](C)CC)NC1=O) [SEQ ID NO: 1717]	32.8 nM	47.8 nM	4.5 nM
Ac-KWIAAALR[R8]IGDAFN[S5]YYA-NH2 (staple 9-16; SMILES CC[C@H](C)[C@H](NC(=O)[C@H](Cc1c[nH]c2ccccc12)NC(=O)[C@H](CCCCN)NC(C)=O)C(=O)N[C@@H](C)C(=O)N[C@@H](C)C(=O)N[C@@H](C)C(=O)N[C@@H](CC(C)C)C(=O)N[C@@H](CCCNC(=N)N)C(=O)N[C@]1(C)CCCCCCC=CCCC[C@@](C)(C(=O)N[C@@H](Cc2ccc(O)cc2)C(=O)N[C@@H](Cc2ccc(O)cc2)C(=O)N[C@@H](C)C(N)=O)NC(=O)[C@H](CC(N)=O)NC(=O)[C@H](Cc2ccccc2)NC(=O)[C@H](C)NC(=O)[C@H](CC(=O)O)NC(=O)CNC(=O)[C@H]([C@@H](C)CC)NC1=O) [SEQ ID NO: 1718]	27.2 nM	49.7 nM	3.9 nM
Ac-HWIAAALR[R8]IGDAFN[S5]YYA-NH2 (staple 9-16; SMILES CC[C@H](C)[C@H](NC(=O)[C@H](Cc1c[nH]c2ccccc12)NC(=O)[C@H](Cc1c[nH]cn1)NC(C)=O)C(=O)N[C@@H](C)C(=O)N[C@@H](C)C(=O)N[C@@H](C)C(=O)N[C@@H](CC(C)C)C(=O)N[C@@H](CCCNC(=N)N)C(=O)N[C@]1(C)CCCCCCC=CCCC[C@@](C)(C(=O)N[C@@H](Cc2ccc(O)cc2)C(=O)N[C@@H](Cc2ccc(O)cc2)C(=O)N[C@@H](C)C(N)=O)NC(=O)[C@H](CC(N)=O)NC(=O)[C@H](Cc2ccccc2)NC(=O)[C@H](C)NC(=O)[C@H](CC(=O)O)NC(=O)CNC(=O)[C@H]([C@@H](C)CC)NC1=O) [SEQ ID NO: 1719]	25.2 nM	52 nM	3.6 nM
Ac-SWIAAALR[R8]IGDAFN[S5]YYA-NH2 (staple 9-16; SMILES CC[C@H](C)[C@H](NC(=O)[C@H](Cc1c[nH]c2ccccc12)NC(=O)[C@H](CO)NC(C)=O)C(=O)N[C@@H](C)C(=O)N[C@@H](C)C(=O)N[C@@H](C)C(=O)N[C@@H](CC(C)C)C(=O)N[C@@H](CCCNC(=N)N)C(=O)N[C@]1(C)CCCCCCC=CCCC[C@@](C)(C(=O)N[C@@H](Cc2ccc(O)cc2)C(=O)N[C@@H](Cc2ccc(O)cc2)C(=O)N[C@@H](C)C(N)=O)NC(=O)[C@H](CC(N)=O)NC(=O)[C@H](Cc2ccccc2)NC(=O)[C@H](C)NC(=O)[C@H](CC(=O)O)NC(=O)CNC(=O)[C@H]([C@@H](C)CC)NC1=O) [SEQ ID NO: 1720]	33.4 nM	53.2 nM	3.9 nM
Ac-QWIAAALR[R8]IGDAFN[S5]YYA-NH2 (staple 9-16; SMILES CC[C@H](C)[C@H](NC(=O)[C@H](Cc1c[nH]c2ccccc12)NC(=O)[C@H](CCC(N)=O)NC(C)=O)C(=O)N[C@@H](C)C(=O)N[C@@H](C)C(=O)N[C@@H](C)C(=O)N[C@@H](CC(C)C)C(=O)N[C@@H](CCCNC(=N)N)C(=O)N[C@]1(C)CCCCCCC=CCCC[C@@](C)(C(=O)N[C@@H](Cc2ccc(O)cc2)C(=O)N[C@@H](Cc2ccc(O)cc2)C(=O)N[C@@H](C)C(N)=O)NC(=O)[C@H](CC(N)=O)NC(=O)[C@H](Cc2ccccc2)NC(=O)[C@H](C)NC(=O)[C@H](CC(=O)O)NC(=O)CNC(=O)[C@H]([C@@H](C)CC)NC1=O) [SEQ ID NO: 1721]	35.9 nM	64.9 nM	4.8 nM
Ac-AWIAAALR[R8]IGDAFN[S5]YYA-NH2 (staple 9-16; SMILES CC[C@H](C)[C@H](NC(=O)[C@H](Cc1c[nH]c2ccccc12)NC(=O)[C@H](C)NC(C)=O)C(=O)N[C@@H](C)C(=O)N[C@@H](C)C(=O)N[C@@H](C)C(=O)N[C@@H](CC(C)C)C(=O)N[C@@H](CCCNC(=N)N)C(=O)N[C@]1(C)CCCCCCC=CCCC[C@@](C)(C(=O)N[C@@H](Cc2ccc(O)cc2)C(=O)N[C@@H](Cc2ccc(O)cc2)C(=O)N[C@@H](C)C(N)=O)NC(=O)[C@H](CC(N)=O)NC(=O)[C@H](Cc2ccccc2)NC(=O)[C@H](C)NC(=O)[C@H](CC(=O)O)NC(=O)CNC(=O)[C@H]([C@@H](C)CC)NC1=O) [SEQ ID NO: 1722]	32.6 nM	63.9 nM	3.8 nM
